From PMC12098241

Columns and labels:
[1] = molecular target: SIRPα-αMSLN^M4F5 local inhibitory checkpoint monoclonal antibody (LicMAb); experiment: flow cytometry on cells; binding to SUIT-2-MSLN cells in the presence of 2.5 µM rhMSLN as competitor (Supplementary Figure S6b, c)
[2] = molecular target: SIRPα-αMSLN^M4F5 local inhibitory checkpoint monoclonal antibody (LicMAb); experiment: flow cytometry on cells; binding to SUIT-2-MSLN cells in the presence of saturating concentrations of soluble MSLN (Supplementary Figure S7a)

percent reduction of the binding of m2 to SUIT-2-MSLN cells by 2.5 µM rhMSLN [1]: 40% | percent reduction of the binding of m2 to SUIT-2-MSLN cells by saturating soluble MSLN [2]: 53%
Substance: recombinant human MSLN (rhMSLN) (from UniProt Q13421 37-598) (natural protein)
